From article doi:10.1101/2021.02.02.429416 come the findings set out here.

Assay [1] deals with Aflibercept. As to the kind of experiment: ELISA. A general note: An ELISA detects its analyte on a solid surface through an enzyme-linked reagent.
Assay [2] deals with Aflibercept. In words: BLI. Background: Biolayer interferometry detects binding as a change in optical thickness at a sensor tip.

Take Human VEGF-A121 (ligand): in assay [1], the EC50 is 1.63 nM. In assay [1], Human VEGF-A165 (ligand) displayed an EC50 of 1.69 nM. Moreover, the Kd in assay [2] stood at 0.00269 nM.

The EC50 is the concentration that produces a half-maximal response. As usually defined, the Kd is the concentration at which binding is half-saturated. The low end stands for a tighter complex, the high end for a looser complex.
